Experimental data from PMC11342882 (Molecular Therapy. Methods & Clinical Development, 2024).

Target: Delta-RBD (SARS-CoV-2, UniProt P0DTC2)
Assay: BLI

B1: sACE2_(2).S14-IgG1 (Fc fusion)
chain: QSTIEEQAKYFLDKFNHEAEDLFYQSSLASWNYNTNITEENVQNMNNAGDKWSAFLKEQSTTAQMYPLQEIQNLTVKLQLQALQQNGSSVLSEDKSKRLNTILNTMSTIYSTGKVCNPDNPQECLLLEPGLNEIMANSLDYNERLWAWESWRSEVGKQLRPLYEEYVVLKNEMARANHYEDYGDYWRGDYEVNGVDGYDYSRGQLIEDVEHTFEEIKPLYEHLHAYVRAKLMNAYPSYISPIGCLPAHLLGDMWGRFWTNLYSLTVPFGQKPNIDVTDAMVDQAWDAQRIFKEAEKFFVSVGLPNMTQGFWEYSMLTDPGNVQKAVCHPTAWDLGKGDFRILMCTKVTMDDFLTAHHEMGHIQYDMAYAAQPFLLRNGANEGFHEAVGEIMSLSAATPKHLKSIGLLSPDFQEDNETEINFLLKQALTIVGTLPFTYMLEKWRWMVFKGEIPKDQWMKKWWEMKREIVGVVEPVPHDETYCDPASLFHVSNDYSFIRYYTRTLYQFQFQEALCQAAKHEGPLHKCDISNSTEAGQKLFNMLRLGKSEPWTLALENVVGAKNMNVRPLLNYFEPLFTWLKDQNKNSFVGWSTDWSPYADQSIKVRISLKSALGDKAYEWNDNEMYLFRSSVAYAMRQYFLKVKNQTILFGEEDVRVANLKPRISFNFFVTAPKNVSDIIPRTEVEKAIRMSRSRINDAFRLNDSSLEFLGIQPTLG
koff: 0.00087 s⁻¹
